According to IntAct's records for PubMed 17306257:

B1: SH3 domain-binding protein 2 (Homo sapiens), P78314 (parent)
chain: MAAEEMHWPVPMKAIGAQNLLTMPGGVAKAGYLHKKGGTQLQLLKWPLRFVIIHKRCVYYFKSSTSASPQGAFSLSGYNRVMRAAEETTSNNVFPFKIIHISKKHRTWFFSASSEEERKSWMALLRREIGHFHEKKDLPLDTSDSSSDTDSFYGAVERPVDISLSPYPTDNEDYEHDDEDDSYLEPDSPEPGRLEDALMHPPAYPPPPVPTPRKPAFSDMPRAHSFTSKGPGPLLPPPPPKHGLPDVGLAAEDSKRDPLCPRRAEPCPRVPATPRRMSDPPLSTMPTAPGLRKPPCFRESASPSPEPWTPGHGACSTSSAAIMATATSRNCDKLKSFHLSPRGPPTSEPPPVPANKPKFLKIAEEDPPREAAMPGLFVPPVAPRPPALKLPVPEAMARPAVLPRPEKPQLPHLQRSPPDGQSFRSFSFEKPRQPSQADTGGDDSDEDYEKVPLPNSVFVNTTESCEVERLFKATSPRGEPQDGLYCIRNSSTKSGKVLVVWDETSNKVRNYRIFEKDSKFYLEGEVLFVSVGSMVEHYHTHVLPSHQSLLLRHPYGYTGPR

Variants of: B1
Conditions: with sh3k1_human SH3KBP1, Q96B97
Chain of sh3k1_human SH3KBP1, Q96B97 (Q96B97 whole entry): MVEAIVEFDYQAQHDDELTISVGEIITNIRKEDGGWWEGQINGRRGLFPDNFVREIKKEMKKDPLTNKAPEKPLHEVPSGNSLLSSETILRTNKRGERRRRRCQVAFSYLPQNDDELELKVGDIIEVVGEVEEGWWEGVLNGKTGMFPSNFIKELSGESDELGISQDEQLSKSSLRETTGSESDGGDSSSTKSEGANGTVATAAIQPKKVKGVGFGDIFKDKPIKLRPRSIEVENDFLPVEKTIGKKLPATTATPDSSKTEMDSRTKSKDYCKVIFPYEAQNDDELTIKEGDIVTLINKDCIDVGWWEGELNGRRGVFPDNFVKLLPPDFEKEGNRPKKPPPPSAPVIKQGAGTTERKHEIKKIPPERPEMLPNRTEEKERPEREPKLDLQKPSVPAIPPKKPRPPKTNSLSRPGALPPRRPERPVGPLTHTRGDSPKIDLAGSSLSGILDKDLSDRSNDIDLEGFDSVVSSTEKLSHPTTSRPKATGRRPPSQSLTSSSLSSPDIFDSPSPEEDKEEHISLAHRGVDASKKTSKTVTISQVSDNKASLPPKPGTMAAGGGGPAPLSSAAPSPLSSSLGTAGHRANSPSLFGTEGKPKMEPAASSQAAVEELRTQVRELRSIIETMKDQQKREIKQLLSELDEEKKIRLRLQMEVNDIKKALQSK

Variant | effect of a mutation on the interaction
R213A | decreasing interaction
